{
  "source": "patent US20230256076A1",
  "about": "(SICHUAN CLOVER BIOPHARMACEUTICALS, published 2023)",
  "target": "T1, exemplary recombinant polypeptide trimer: RSV F protein peptide (residues 1 to 520, RSV A2 strain) fused to … (respiratory syncytial virus A2 strain; …, UniProt P02452 1156-1464)",
  "T1 construct": "range 1-520;domain: C-propeptide of α1 collagen; Furin processing (F2/F1, loss of pep27) is not described for the tested protein; also called RSV F-Trimer; exemplary fusion peptide comprising an RSV F protein peptide",
  "T1 sequence (P02452 1156-1464)": "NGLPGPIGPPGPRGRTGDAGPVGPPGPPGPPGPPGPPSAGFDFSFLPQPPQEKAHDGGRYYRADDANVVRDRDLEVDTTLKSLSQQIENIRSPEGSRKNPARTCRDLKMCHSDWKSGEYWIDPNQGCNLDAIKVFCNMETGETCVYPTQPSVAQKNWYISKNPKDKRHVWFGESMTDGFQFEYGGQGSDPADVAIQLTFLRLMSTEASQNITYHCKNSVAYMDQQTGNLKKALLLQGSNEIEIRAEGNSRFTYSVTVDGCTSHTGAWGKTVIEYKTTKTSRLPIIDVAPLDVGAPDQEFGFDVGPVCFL",
  "experiment": "BLI (ForteBio Octet QKe); palivizumab 5 µg/mL on Protein A sensors, 2-fold dilutions of fusion peptide from 20 µg/mL, 1:1 model",
  "data": [
    {"binder": "palivizumab (antibody, V domains shown) VH: QVTLRESGPALVKPTQTLTLTCTFSGFSLSTSGMSVGWIRQPPGKALEWLADIWWDDKKDYNPSLKSRLTISKDTSKNQVVLKVTNMDPADTATYYCARSMITNWYFDVWGAGTTVTVSS VL: DIQMTQSPSTLSASVGDRVTITCKCQLSVGYMHWYQQKPGKAPKLLIYDTSKLASGVPSRFSGSGSGTEFTLTISSLQPDDFATYYCFQGSGYPFTFGGGTKLEIK", "values": [
      {"measurement": "Kd", "value": "< 1", "unit": "pM"}
    ]}
  ]
}
